Results on 1 substance are retold here after patent publication US20080226630A1.

The experiment concerns the target RSV protein F (recombinant or purified F protein) (human respiratory syncytial virus, strain not stated). Nature of the experiment: SPR Biacore 3000, Fab over amine-coupled recombinant protein F. Background: SPR reads the build-up and loss of mass on a sensor chip optically.

Take “Fab fragment derived from commercially available Palivizumab (Synagis)”: the dissociation constant Kd was 3.78 nM, the koff was found to be 0.000757 s⁻¹, the kon was determined as 200000 M⁻¹ s⁻¹ and the t1/2 amounted to 15 min.

Broadly, the Kd is the concentration at which binding is half-saturated. What is called koff is the first-order rate constant of dissociation. Broadly, the kon is the second-order rate constant of association.
